Among the data in the RNAGym collection of RNA variant scans (doi:10.1093/molbev/msab373) are reverse-splicing fitness values, retold here.

B1: Azoarcus group I ribozyme (parent)
chain: GUGCCUUGCGCCGGGAAACCACGCAAGGGAUGGUGUCAAAUUCGGCGAAACCUAAGCGCCCGCCCGGGCGUAUGGCAACGCCGAGCCAAGCUUCGGCGCCUGCGCCGAUGAAGGUGUAGAGACUAGACGGCACCCACCUAAGGCAAACGCUAUGGUGAAGGCAUAGUCCAGGGAGUGGCGAAAGUCACACAAACCGG

This series covers variants of B1. Briefly: reverse-splicing fitness (ratio to wild type); higher = more active; in vitro selection; Mg2+ level not given. A digest of the protocol: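 An in vitro group I ribozyme library with randomized positions was T7-transcribed and gel-purified. In triplicate, 10 pmol RNA in EPPS pH 7.5 was reacted with 50 pmoles of a 30-nt RNA substrate for 1 h at 37 °C across several added MgCl2 levels (1–48 mM), then stopped with EDTA. Products were reverse transcribed from a substrate-complementary primer, PCR-amplified and sequenced (HiSeq 4000). Fitness is a variant's read proportion after selection over that before, normalised to wild type.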
Take C82U A111C A120G A145C C150A C169G U176A: the reverse-splicing fitness was found to be 0.0204.

On to C82U A111C A120G A145C C150A C169G U176G, for which the reverse-splicing fitness was 0.00512.

For C82U A111C A120C A145U C150G C169G, the reverse-splicing fitness worked out at 0.00628.

As for C82U A111C A120C A145U C150G C169A, the reverse-splicing fitness worked out at 0.00863.

For C82U A111C A120C A145U C150G C169U, the reverse-splicing fitness is 0.00844.

C82U A111C A120C C169A U176G: the reverse-splicing fitness is 0.00546.

C82U A111C A120C C169A U176C: the reverse-splicing fitness is 0.0189.

C82U A111C A120C C169A U176A: the reverse-splicing fitness worked out at 0.016.

Take C82U A111C A120C A145U C150U C169U U176C: the reverse-splicing fitness is 0.0161.

As to C82U A111C A120C A145U C150U C169U U176G, the reverse-splicing fitness worked out at 0.00597.

In the case of C82U A111C A120C A145U C150U C169U U176A, the reverse-splicing fitness was 0.0142.

In the case of C82U A111C A120C A145U C150U C169A U176A, the reverse-splicing fitness worked out at 0.0117.

In the case of C82U A111C A120C A145U C150U C169A U176G, the reverse-splicing fitness turned out to be 0.00665.

For C82U A111C A120C A145U C150U C169A U176C, the reverse-splicing fitness is 0.00966.

Turning to C82U A111C A120G A145C C150G C169G U176G, the reverse-splicing fitness stood at 0.00437.

For C82U A111C A120G A145C C150G C169G U176A, the reverse-splicing fitness was 0.00836.

In the case of C82U A111C A120G A145C C150G C169G U176C, the reverse-splicing fitness was determined as 0.00632.

As to C82U A111C A120C U176G, the reverse-splicing fitness was found to be 0.00517.

On to C82U A111C A120C U176A, for which the reverse-splicing fitness was 0.0154.

With C82U A111C A120C U176C, the reverse-splicing fitness was determined as 0.0215.

Turning to C82U A111C A120C C150U C169G U176G, the reverse-splicing fitness came out at 0.00553.

On to C82U A111C A120C C150U C169G U176C, for which the reverse-splicing fitness came to 0.0153.

C82U A111C A120C C150U C169G U176A: the reverse-splicing fitness turned out to be 0.0121.

For the variant C82U A111C A120C A145U, the reverse-splicing fitness worked out at 0.028.

Take C82U A111C A120C C150G C169A U176G: the reverse-splicing fitness came out at 0.00618.

Turning to C82U A111C A120C C150G C169A U176A, the reverse-splicing fitness worked out at 0.00943.

Turning to C82U A111C A120C C150G C169A U176C, the reverse-splicing fitness worked out at 0.00876.

As for C82U A111C A120C C150A U176C, the reverse-splicing fitness came out at 0.022.

On to C82U A111C A120C C150A U176G, for which the reverse-splicing fitness worked out at 0.00688.

In the case of C82U A111C A120C C150A U176A, the reverse-splicing fitness was found to be 0.0109.

In the case of C82U A111C A120C A145U C169U U176G, the reverse-splicing fitness came to 0.0054.

For C82U A111C A120C A145U C169U U176A, the reverse-splicing fitness is 0.0127.

With C82U A111C A120C A145U C169U U176C, the reverse-splicing fitness stood at 0.0145.

In the case of C82U A111C A120C C169G U176C, the reverse-splicing fitness was found to be 0.0186.

Turning to C82U A111C A120C C169G U176A, the reverse-splicing fitness was determined as 0.0173.

C82U A111C A120C C169G U176G: the reverse-splicing fitness is 0.00563.

C82U A111C A120C A145U C150A C169A: the reverse-splicing fitness was determined as 0.00776.

Regarding C82U A111C A120C A145U C150A C169U, the reverse-splicing fitness amounted to 0.0101.

Turning to C82U A111C A120C A145U C150A C169G, the reverse-splicing fitness was 0.00745.

Take C82U A111C A120C A145U C150A C169A U176C: the reverse-splicing fitness came out at 0.00844.

Turning to C82U A111C A120C A145U C150A C169A U176A, the reverse-splicing fitness came to 0.0117.

As to C82U A111C A120C A145U C150A C169A U176G, the reverse-splicing fitness amounted to 0.00614.

Turning to C82U A111C A120C A145U C150A, the reverse-splicing fitness was 0.0082.

On to C82U A111C A120C A145U C150U, for which the reverse-splicing fitness stood at 0.0199.

Take C82U A111C A120C A145U C150G: the reverse-splicing fitness stood at 0.00723.

For the variant C82U A111C A120C A145U C150G C169U U176C, the reverse-splicing fitness is 0.0132.

In the case of C82U A111C A120C A145U C150G C169U U176G, the reverse-splicing fitness was 0.00581.

As for C82U A111C A120C A145U C150G C169U U176A, the reverse-splicing fitness amounted to 0.00839.

Take C82U A111C A120G A145C C150G C169G: the reverse-splicing fitness stood at 0.00642.

As for C82U A111C A120G A145C C150G C169A, the reverse-splicing fitness was 0.00748.

Regarding C82U A111C A120C A145U C150U U176C, the reverse-splicing fitness came to 0.0144.

Turning to C82U A111C A120C A145U C150U U176A, the reverse-splicing fitness worked out at 0.0105.

As to C82U A111C A120C A145U C150U U176G, the reverse-splicing fitness was found to be 0.00604.

As for C82U A111C A120C A145G C169U U176A, the reverse-splicing fitness is 0.0159.

With C82U A111C A120C A145G C169U U176C, the reverse-splicing fitness came to 0.0159.

Take C82U A111C A120C A145G C169U U176G: the reverse-splicing fitness came out at 0.00573.

Consider C82U A111C A120C C150A C169G, for which the reverse-splicing fitness worked out at 0.00864.

Take C82U A111C A120C C150A C169U: the reverse-splicing fitness came to 0.0128.

On to C82U A111C A120C C150A C169A, for which the reverse-splicing fitness was 0.00879.

Consider C82U A111C A120C C150U C169G, for which the reverse-splicing fitness was 0.0078.

Regarding C82U A111C A120C C150U C169U, the reverse-splicing fitness is 0.0109.

C82U A111C A120C C150U C169A: the reverse-splicing fitness is 0.00816.

Turning to C82U A111C A120C A145U C169A, the reverse-splicing fitness came out at 0.00732.

Consider C82U A111C A120C A145U C169G, for which the reverse-splicing fitness turned out to be 0.00753.

C82U A111C A120C A145U C169U: the reverse-splicing fitness was found to be 0.0103.

On to C82U A111C A120C A145U C150A C169U U176A, for which the reverse-splicing fitness is 0.0184.

On to C82U A111C A120C A145U C150A C169U U176C, for which the reverse-splicing fitness stood at 0.014.

For C82U A111C A120C A145U C150A C169U U176G, the reverse-splicing fitness is 0.00706.

Take C82U A111C A120C C150G C169G U176G: the reverse-splicing fitness turned out to be 0.00547.

C82U A111C A120C C150G C169G U176C: the reverse-splicing fitness was 0.0068.

As for C82U A111C A120C C150G C169G U176A, the reverse-splicing fitness was found to be 0.00777.

For C82U A111C A120G A145C C150A C169G, the reverse-splicing fitness worked out at 0.00682.

With C82U A111C A120G A145C C150A C169A, the reverse-splicing fitness turned out to be 0.00641.

For C82U A111C A120G A145C C150A C169U, the reverse-splicing fitness was 0.00688.

As to C82U A111C A120C A145U C150G U176C, the reverse-splicing fitness stood at 0.00923.

As to C82U A111C A120C A145U C150G U176A, the reverse-splicing fitness is 0.00578.

Take C82U A111C A120C A145U C150G U176G: the reverse-splicing fitness was 0.00321.

Take C82U A111C A120C C150A: the reverse-splicing fitness was determined as 0.00985.

With C82U A111C A120C C150U, the reverse-splicing fitness worked out at 0.0192.

In the case of C82U A111C A120C C150G, the reverse-splicing fitness was 0.00785.

Turning to C82U A111C A120C A145U C150A U176C, the reverse-splicing fitness is 0.0135.

In the case of C82U A111C A120C A145U C150A U176A, the reverse-splicing fitness stood at 0.00905.

Regarding C82U A111C A120C A145U C150A U176G, the reverse-splicing fitness stood at 0.00561.

In the case of C82U A111C A120G A145C, the reverse-splicing fitness is 0.0118.
